Results taken from patent US20210246166A1 (Bayer, published 2021).
Bridge positions count the residues as written; N and C are the ends. Square brackets hold non-standard residues; d marks the D form. Ends that are not written are not given here. * marks the point of attachment. Benzoyl(3-COOH) = O=C(O)c1cccc(C(=O)*)c1; Benzoyl(4-COOH) = O=C(O)c1ccc(C(=O)*)cc1; Oic = O=C(O)[C@@H]1C[C@@H]2CCCC[C@@H]2N1; tBuAla = CC(C)(C)C[C@H](N)C(=O)O; PEG4 = NCCOCCOCCOCCOCCC(=O)O; Pen = CC(C)(S)[C@H](N)C(=O)O; Orn = NCCC[C@H](N)C(=O)O; PEG2 = NCCOCCOCCC(=O)O; Sar = CNCC(=O)O

T1: recombinant rat MASP1 active protease (amino acids 302-704, C-terminal His Tag) (rat, UniProt Q8CHN8 302-704)
T1 sequence: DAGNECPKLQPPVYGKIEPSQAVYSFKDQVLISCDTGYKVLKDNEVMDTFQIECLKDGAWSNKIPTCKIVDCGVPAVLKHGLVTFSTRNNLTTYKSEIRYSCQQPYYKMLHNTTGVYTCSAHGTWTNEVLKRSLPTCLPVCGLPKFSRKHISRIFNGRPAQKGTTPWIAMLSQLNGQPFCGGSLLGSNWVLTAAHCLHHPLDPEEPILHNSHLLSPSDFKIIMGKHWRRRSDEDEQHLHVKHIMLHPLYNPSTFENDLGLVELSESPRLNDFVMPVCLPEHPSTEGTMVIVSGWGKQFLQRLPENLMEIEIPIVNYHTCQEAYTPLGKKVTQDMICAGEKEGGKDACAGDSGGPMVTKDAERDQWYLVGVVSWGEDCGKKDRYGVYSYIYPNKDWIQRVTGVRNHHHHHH

B1: Example 490: (4-Carboxybenzoic acid)-GIC+SRSLP-(Oic)-I-(Pen)+IPD-OH (peptide)
peptide: {Benzoyl(4-COOH)}-GICSRSLP[Oic]I[Pen]IPD-OH
modifications: disulfide 3-11
SMILES: CC[C@H](C)[C@H](NC(=O)CNC(=O)c1ccc(C(=O)O)cc1)C(=O)N[C@H]1CSSC(C)(C)[C@@H](C(=O)N[C@H](C(=O)N2CCC[C@H]2C(=O)N[C@@H](CC(=O)O)C(=O)O)[C@@H](C)CC)NC(=O)[C@H]([C@@H](C)CC)NC(=O)[C@@H]2C[C@@H]3CCCC[C@@H]3N2C(=O)[C@@H]2CCCN2C(=O)[C@H](CC(C)C)NC(=O)[C@H](CO)NC(=O)[C@H](CCCNC(=N)N)NC(=O)[C@H](CO)NC1=O
B2: Example 491: (3-Carboxybenzoic acid)-GIC+SRSLP-(Oic)-I-(Pen)+IPD-OH (peptide)
peptide: {Benzoyl(3-COOH)}-GICSRSLP[Oic]I[Pen]IPD-OH
modifications: disulfide 3-11
SMILES: CC[C@H](C)[C@H](NC(=O)CNC(=O)c1cccc(C(=O)O)c1)C(=O)N[C@H]1CSSC(C)(C)[C@@H](C(=O)N[C@H](C(=O)N2CCC[C@H]2C(=O)N[C@@H](CC(=O)O)C(=O)O)[C@@H](C)CC)NC(=O)[C@H]([C@@H](C)CC)NC(=O)[C@@H]2C[C@@H]3CCCC[C@@H]3N2C(=O)[C@@H]2CCCN2C(=O)[C@H](CC(C)C)NC(=O)[C@H](CO)NC(=O)[C@H](CCCNC(=N)N)NC(=O)[C@H](CO)NC1=O
B3: Example 485: ((N-Me)G)-IC+SRS-((tBu)A)-PPI-(Pen)+IP-(PEG3(16atoms))-OH (peptide)
peptide: [Sar]ICSRS[tBuAla]PPI[Pen]IP[PEG4]-OH
modifications: disulfide 3-11; N-terminus assumed
SMILES: CC[C@H](C)[C@H](NC(=O)CNC)C(=O)N[C@H]1CSSC(C)(C)[C@@H](C(=O)N[C@H](C(=O)N2CCC[C@H]2C(=O)NCCOCCOCCOCCOCCC(=O)O)[C@@H](C)CC)NC(=O)[C@H]([C@@H](C)CC)NC(=O)[C@@H]2CCCN2C(=O)[C@@H]2CCCN2C(=O)[C@H](CC(C)(C)C)NC(=O)[C@H](CO)NC(=O)[C@H](CCCNC(=N)N)NC(=O)[C@H](CO)NC1=O
B4: Example 486: ((N-Me)G)-IC+SRS-((tBu)A)-PPI-(Pen)+IP-(Orn)-D-OH (peptide)
peptide: [Sar]ICSRS[tBuAla]PPI[Pen]IP[Orn]D-OH
modifications: disulfide 3-11; N-terminus assumed
SMILES: CC[C@H](C)[C@H](NC(=O)CNC)C(=O)N[C@H]1CSSC(C)(C)[C@@H](C(=O)N[C@H](C(=O)N2CCC[C@H]2C(=O)N[C@@H](CCCN)C(=O)N[C@@H](CC(=O)O)C(=O)O)[C@@H](C)CC)NC(=O)[C@H]([C@@H](C)CC)NC(=O)[C@@H]2CCCN2C(=O)[C@@H]2CCCN2C(=O)[C@H](CC(C)(C)C)NC(=O)[C@H](CO)NC(=O)[C@H](CCCNC(=N)N)NC(=O)[C@H](CO)NC1=O
B5: Example 497: ((N-Me)G)-IC+SRS-((tBu)A)-PPI-(Pen)+IP-((N-Me)G)-((N-Me)G)-((N-Me)G)-OH (peptide)
peptide: [Sar]ICSRS[tBuAla]PPI[Pen]IP[Sar][Sar][Sar]-OH
modifications: disulfide 3-11; N-terminus assumed
SMILES: CC[C@H](C)[C@H](NC(=O)CNC)C(=O)N[C@H]1CSSC(C)(C)[C@@H](C(=O)N[C@H](C(=O)N2CCC[C@H]2C(=O)N(C)CC(=O)N(C)CC(=O)N(C)CC(=O)O)[C@@H](C)CC)NC(=O)[C@H]([C@@H](C)CC)NC(=O)[C@@H]2CCCN2C(=O)[C@@H]2CCCN2C(=O)[C@H](CC(C)(C)C)NC(=O)[C@H](CO)NC(=O)[C@H](CCCNC(=N)N)NC(=O)[C@H](CO)NC1=O

Target: T1, recombinant rat MASP1 active protease …
Assay: cell-based or functional assay

| Binder | rat MASP1 IC50 [µM] |
| --- | --- |
| B1 | 0.0125 |
| [Sar]ICSRS[tBuAla]PPI[Pen]IP-{PEG5‑CH2CO2H(18 atoms)-OH} (disulfide 3-11) [Example 496: ((N-Me)G)-IC+SRS-((tBu)A)-PPI-(Pen)+IP-(PEG5-CH2CO2H(18 atoms))-OH] | 0.031 |
| B2 | 0.02 |
| B3 | 0.036 |
| [(R)‑Piperidine‑3‑Carboxylic Acid]ICSRSLP[Oic]I[Pen]IPD-OH (disulfide 3-11) [Example 488: ((R)-Piperidine-3-Carboxylic Acid)-IC+SRSLP-(Oic)-I-(Pen)+IPD-OH] | 0.041 |
| B4 | 0.069 |
| [Sar]ICSRS[tBuAla]PPI[Pen]IP-{PEG2-OH} (disulfide 3-11) [Example 498: ((N-Me)G)-IC+SRS-((tBu)A)-PPI-(Pen)+IP-(PEG1(10 atoms))-OH] | 0.044 |
| B5 | 0.058 |

Target: recombinant rat MASP2 active protease (amino acids 296-685, C-terminal His Tag) (rat, UniProt Q9JJS8 296-685)
Sequence (Q9JJS8 other isoform, or with tags, fused parts or gaps limits assumed): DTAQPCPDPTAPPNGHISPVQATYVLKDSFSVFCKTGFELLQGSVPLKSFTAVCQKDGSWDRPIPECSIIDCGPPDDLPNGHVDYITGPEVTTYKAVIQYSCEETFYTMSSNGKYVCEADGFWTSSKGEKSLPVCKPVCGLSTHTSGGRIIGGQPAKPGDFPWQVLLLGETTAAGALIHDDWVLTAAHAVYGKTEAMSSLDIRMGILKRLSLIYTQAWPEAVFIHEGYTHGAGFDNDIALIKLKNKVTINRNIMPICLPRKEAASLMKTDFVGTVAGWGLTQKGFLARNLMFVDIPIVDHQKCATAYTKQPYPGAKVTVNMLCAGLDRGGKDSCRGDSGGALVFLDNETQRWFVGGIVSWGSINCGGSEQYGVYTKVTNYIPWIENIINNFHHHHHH
Assay: cell-based or functional assay

| Binder | rat MASP2 IC50 [µM] |
| --- | --- |
| B1 | 0.015 |
| [Sar]ICSRS[tBuAla]PPI[Pen]IP-{PEG5‑CH2CO2H(18 atoms)-OH} (disulfide 3-11) [Example 496: ((N-Me)G)-IC+SRS-((tBu)A)-PPI-(Pen)+IP-(PEG5-CH2CO2H(18 atoms))-OH] | 0.031 |
| B2 | 0.023 |
| B3 | 0.032 |
| [(R)‑Piperidine‑3‑Carboxylic Acid]ICSRSLP[Oic]I[Pen]IPD-OH (disulfide 3-11) [Example 488: ((R)-Piperidine-3-Carboxylic Acid)-IC+SRSLP-(Oic)-I-(Pen)+IPD-OH] | 0.036 |
| B4 | 0.068 |
| [Sar]ICSRS[tBuAla]PPI[Pen]IP-{PEG2-OH} (disulfide 3-11) [Example 498: ((N-Me)G)-IC+SRS-((tBu)A)-PPI-(Pen)+IP-(PEG1(10 atoms))-OH] | 0.042 |
| B5 | 0.039 |
